Experimental data taken from paper PMC11720309, “Transcriptional regulation of miR528-PPO module by miR156 targeted SPLs orchestrates chilling response in banana”.

T1: MaSPL44 (UniProt A0A804KAB2 1-473)
T1 sequence: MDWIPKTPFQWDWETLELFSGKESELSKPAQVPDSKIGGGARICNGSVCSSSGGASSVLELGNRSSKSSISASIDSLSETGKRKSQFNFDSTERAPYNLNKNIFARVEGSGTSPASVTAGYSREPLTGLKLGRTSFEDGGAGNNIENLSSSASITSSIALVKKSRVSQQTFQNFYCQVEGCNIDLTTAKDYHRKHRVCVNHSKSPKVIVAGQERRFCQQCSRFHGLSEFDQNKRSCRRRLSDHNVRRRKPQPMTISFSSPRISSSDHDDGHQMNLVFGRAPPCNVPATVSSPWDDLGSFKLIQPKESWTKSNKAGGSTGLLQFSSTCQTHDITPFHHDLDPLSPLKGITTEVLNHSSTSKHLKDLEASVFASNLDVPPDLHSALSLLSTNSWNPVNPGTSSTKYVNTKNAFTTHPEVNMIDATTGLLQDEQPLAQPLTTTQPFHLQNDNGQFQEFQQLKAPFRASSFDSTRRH

T2: MaSPL4 (UniProt A0A804HZD8 1-178)
T2 sequence: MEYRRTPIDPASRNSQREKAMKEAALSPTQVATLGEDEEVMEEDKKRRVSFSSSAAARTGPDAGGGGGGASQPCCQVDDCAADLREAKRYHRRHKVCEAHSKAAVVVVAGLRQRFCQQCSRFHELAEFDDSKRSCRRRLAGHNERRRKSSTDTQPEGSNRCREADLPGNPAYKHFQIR

T3: MaSPL5 (UniProt A0A804I0H4 1-393)
T3 sequence: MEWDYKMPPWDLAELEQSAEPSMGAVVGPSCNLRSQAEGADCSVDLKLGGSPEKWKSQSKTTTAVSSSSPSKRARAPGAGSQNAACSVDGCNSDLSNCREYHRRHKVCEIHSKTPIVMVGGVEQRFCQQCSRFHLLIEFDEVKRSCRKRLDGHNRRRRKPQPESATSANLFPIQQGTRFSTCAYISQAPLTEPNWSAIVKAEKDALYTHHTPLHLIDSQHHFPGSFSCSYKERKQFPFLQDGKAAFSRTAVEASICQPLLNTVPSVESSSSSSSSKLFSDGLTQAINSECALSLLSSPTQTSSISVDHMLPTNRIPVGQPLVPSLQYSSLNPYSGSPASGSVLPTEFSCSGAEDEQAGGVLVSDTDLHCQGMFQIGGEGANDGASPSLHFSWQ

B1: MamiR528pro-mut-probe (dsDNA)
DNA 1: GCGCAAAAAAGTGCAAAAATAAGATACTACACAAACCACACAATAGAAAAAACACTATC
DNA 2: GATAGTGTTTTTTCTATTGTGTGGTTTGTGTAGTATCTTATTTTTGCACTTTTTTGCGC
B2: MamiR528pro-probe (dsDNA)
DNA 1: GCGCAGTACAGTGCAGTACTAAGATACTACACAAACCACACAATAGAAGTACCACTATC
DNA 2: GATAGTGGTACTTCTATTGTGTGGTTTGTGTAGTATCTTAGTACTGCACTGTACTGCGC

Tests used:
Conditions in all cases: protein: recombinant; tags: GST (N-terminal, pGEX-4T-3); blunt
MaSPL44 [1] = biological target: T1, MaSPL44; assay: competition; unlabeled competitor vs biotin-N1 (EMSA); Chemiluminescent EMSA Kit (Thermo Fisher); buffer, salt, pH and temperature not stated
MaSPL4 [2] = biological target: T2, MaSPL4; assay: as above
MaSPL5 [3] = biological target: T3, MaSPL5; assay: as above
MaSPL44 [4] = biological target: T1, MaSPL44; assay: EMSA; Chemiluminescent EMSA Kit (Thermo Fisher); buffer, salt, pH and temperature not stated
MaSPL4 [5] = biological target: T2, MaSPL4; assay: as above
MaSPL5 [6] = biological target: T3, MaSPL5; assay: as above

Binder | binding result (MaSPL44 [1]) | binding result (MaSPL4 [2]) | binding result (MaSPL5 [3]) | binding result (MaSPL44 [4]) | binding result (MaSPL4 [5]) | binding result (MaSPL5 [6])
B1 | no binding | no binding | no binding |  |  | 
B2 |  |  |  | binds | binds | binds
